Here are results for four molecules from patent publication US20230192903A1 (published 2023).

For one assay, the target named is T1, murine CD3 antigen (murine, UniProt P22646 22-108, limits assumed).
T1 construct: also called Mouse CD3ϵ
Nature of the assay: SPR (Biacore T200), murine CD3 antigen on CM5 chip, 1:1 fit.

For assay [1], the target named is T2, Human CLDN18.2 (human).
T2 construct: the cell line is named under assay; also called hCLDN18.2; human CLDN18.2 antigen
Nature of the assay: flow cytometry, NUGC4 cells (endogenous CLDN18.2).
Description: (§1) NUGC4 and NUGC4-hCLDN18.2 cells were cultured, digested with pancreatin and centrifuged to collect cells. The cells were collected and resuspended in buffer (PBS+1% FBS) at 1×10⁴ cells/well in a 96-well plate at 100 μL per well. Then the mixture was centrifuged at 350×g for 5 min, and the supernatant was removed.

Assay [2] concerns the target T2, Human CLDN18.2. Nature of the assay: flow cytometry, NUGC4-hCLDN18.2 cells. (In general: Flow cytometry measures light scatter and fluorescence of single cells or particles in a stream.)
Description: as §1
Assay [3] addresses T2, Human CLDN18.2. Nature of the assay: cell-based or functional assay.
In assay [4] the target is T2, Human CLDN18.2. Nature of the assay: flow cytometry, NUGC4 cells (endogenous CLDN18.2). This is another data set of the same source.
The target in assay [5] is T2, Human CLDN18.2. Nature of the assay: flow cytometry, NUGC4-hCLDN18.2 cells. The source holds these as a separate data set.
Description: as §1
The next assay has as its target T3, Human CLDN18.1 (human, UniProt P56856 1-261).
T3 construct: also called hCLDN18.1
Nature of the assay: flow cytometry, 293T-hCLDN18.1 cells.

In another assay the target is T4, human CD3 antigen (human, UniProt P07766 23-126).
T4 construct: also called Human CD3ϵ
Nature of the assay: SPR (Biacore T200), human CD3 antigen on CM5 chip. In general terms: Surface plasmon resonance follows binding to a sensor surface in real time, without labels.

T1 sequence (P22646 22-108 limits assumed): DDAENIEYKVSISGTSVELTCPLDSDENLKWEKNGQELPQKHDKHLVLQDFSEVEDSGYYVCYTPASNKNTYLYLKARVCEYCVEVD
Description for human CD3 antigen: (§2) After the detection was completed, data fitting was carried out on the result pattern by adopting Biacore T200 Evaluation Software in a 1:1 binding fitting mode to obtain an equilibrium dissociation constant (KD).
Description for murine CD3 antigen: as §2

B1: bispecific antibody SY1 (bispecific antibody, human IgG1, kappa)
light: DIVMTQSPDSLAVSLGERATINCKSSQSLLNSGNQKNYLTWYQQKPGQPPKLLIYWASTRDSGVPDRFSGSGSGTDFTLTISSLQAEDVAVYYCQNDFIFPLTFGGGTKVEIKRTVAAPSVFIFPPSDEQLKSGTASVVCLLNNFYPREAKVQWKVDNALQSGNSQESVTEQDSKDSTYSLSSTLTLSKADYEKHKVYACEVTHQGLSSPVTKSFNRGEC
heavy: QVQLQESGPGLVKPSETLSLTCTVSGFSLTRYGVSWIRQPPGKGLEWIGVIWGEGNTNYNPSLKSRVTISKDSSKSQVSLKLSSVTAADTAVYYCARVNFGNALDYWGQGTLVTVSSASTKGPSVFPLAPSSKSTSGGTAALGCLVKDYFPEPVTVSWNSGALTSGVHTFPAVLQSSGLYSLSSVVTVPSSSLGTQTYICNVNHKPSNTKVDKKVEPKSCDKTHTCPPCPAPPVAGPSVFLFPPKPKDTLMISRTPEVTCVVVDVSHEAPEVQFNWYVDGVEVHNAKTKPREEQFNSTFRVVSVLTVVHQDWLNGKEYKCKVSNKGLPAPIEKTISKTKGQPREPQVYTLPPCRDELTKNQVSLWCLVKGFYPSDIAVEWESNGQPENNYKTTPPVLDSDGSFFLYSKLTVDKSRWQQGNVFSCSVMHEALHNHYTQKSLSLSPGK
chain: EVQLVESGGGLVQPGKSLKLSCEASGFTFSGYGMHWVRQAPGRGLESVAYITSSSINIKYADAVKGRFTVSRDNAKNLLFLQMNILKSEDTAMYYCARFDWDKNYWGQGTMVTVSSGGGGSGGGGSGGGGSDIQMTQSPSSLPASLGDRVTINCQASQDISNYLNWYQQKPGKAPKLLIYYTNKLADGVPSRFSGSGSGRDSSFTISSLESEDIGSYYCQQYYNYPWTFGPGTKLEIKGRGRGSDKTHTCPPCPAPPVAGPSVFLFPPKPKDTLMISRTPEVTCVVVDVSHEAPEVQFNWYVDGVEVHNAKTKPREEQFNSTFRVVSVLTVVHQDWLNGKEYKCKVSNKGLPAPIEKTISKTKGQPREPQVCTLPPSRDELTKNQVSLSCAVKGFYPSDIAVEWESNGQPENNYKTTPPVLDSDGSFFLVSKLTVDKSRWQQGNVFSCSVMHEALHNHYTQKSLSLSPGK
notes: YBODY structure: anti-CLDN18.2 Fab arm (2C6.9) and single chain anti-mouse CD3 scFv (2C11)-Fc
Take B1: binding with murine CD3 antigen was characterised by a dissociation constant (Kd) of 79.3 nM. Moreover, the EC50 in the assay with Human CLDN18.2 [1] came to 304 nM; in the assay with Human CLDN18.2 [2] it was 125 nM.

B2: bispecific antibody SCS1 (bispecific antibody, human IgG1, kappa)
light: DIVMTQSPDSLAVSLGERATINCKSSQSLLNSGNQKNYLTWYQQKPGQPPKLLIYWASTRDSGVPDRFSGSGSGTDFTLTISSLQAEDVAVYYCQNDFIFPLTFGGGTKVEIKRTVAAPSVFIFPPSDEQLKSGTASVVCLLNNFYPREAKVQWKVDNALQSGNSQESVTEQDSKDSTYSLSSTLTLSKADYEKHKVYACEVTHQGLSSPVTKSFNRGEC
heavy 1: B1 heavy
heavy 2: QVQLQESGPGLVKPSETLSLTCTVSGFSLTRYGVSWIRQPPGKGLEWIGVIWGEGNTNYNPSLKSRVTISKDSSKSQVSLKLSSVTAADTAVYYCARVNFGNALDYWGQGTLVTVSSASTKGPSVFPLAPSSKSTSGGTAALGCLVKDYFPEPVTVSWNSGALTSGVHTFPAVLQSSGLYSLSSVVTVPSSSLGTQTYICNVNHKPSNTKVDKKVEPKSCDKTHTAPAPAPAPAPAPAPAPEVQLVESGGGLVQPGKSLKLSCEASGFTFSGYGMHWVRQAPGRGLESVAYITSSSINIKYADAVKGRFTVSRDNAKNLLFLQMNILKSEDTAMYYCARFDWDKNYWGQGTMVTVSSGGGGSGGGGSGGGGSDIQMTQSPSSLPASLGDRVTINCQASQDISNYLNWYQQKPGKAPKLLIYYTNKLADGVPSRFSGSGSGRDSSFTISSLESEDIGSYYCQQYYNYPWTFGPGTKLEIKGGGGSDKTHTCPPCPAPPVAGPSVFLFPPKPKDTLMISRTPEVTCVVVDVSHEAPEVQFNWYVDGVEVHNAKTKPREEQFNSTFRVVSVLTVVHQDWLNGKEYKCKVSNKGLPAPIEKTISKTKGQPREPQVCTLPPSRDELTKNQVSLSCAVKGFYPSDIAVEWESNGQPENNYKTTPPVLDSDGSFFLVSKLTVDKSRWQQGNVFSCSVMHEALHNHYTQKSLSLSPGK
notes: CSBODY structure: two 2C6.9 Fab arms; second heavy chain (first heavy entry) and first heavy chain with anti-mouse CD3 scFv (2C11) between CH1 and Fc2; also called SCSI
Take B2: the Kd in the assay with murine CD3 antigen is 94.1 nM. Further, the EC50 in the assay with Human CLDN18.2 [1] was found to be 29.1 nM; with Human CLDN18.2 [2], 25.4 nM.

B3: bispecific antibody CS7 (bispecific antibody, human IgG1, kappa)
light: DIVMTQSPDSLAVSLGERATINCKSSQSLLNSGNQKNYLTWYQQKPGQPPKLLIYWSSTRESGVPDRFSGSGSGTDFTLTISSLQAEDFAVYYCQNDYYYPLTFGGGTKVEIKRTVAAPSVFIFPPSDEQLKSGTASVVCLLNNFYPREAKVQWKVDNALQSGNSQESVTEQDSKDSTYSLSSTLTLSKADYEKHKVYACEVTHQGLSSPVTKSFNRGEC
heavy 1: EVQLVESGGGLVKPGGSLRLSCAASGFSFSNSAMSWVRQAPGKGLEWVSTISSGDSYTYYADSVKGRFTISRDNAKNSLYLQMNSLRAEDTAVYYCARQGYGNALDYWGQGTLVTVSSASTKGPSVFPLAPSSKSTSGGTAALGCLVKDYFPEPVTVSWNSGALTSGVHTFPAVLQSSGLYSLSSVVTVPSSSLGTQTYICNVNHKPSNTKVDKKVEPKSCDKTHTCPPCPAPPVAGPSVFLFPPKPKDTLMISRTPEVTCVVVDVSHEAPEVQFNWYVDGVEVHNAKTKPREEQFNSTFRVVSVLTVVHQDWLNGKEYKCKVSNKGLPAPIEKTISKTKGQPREPQVYTLPPCRDELTKNQVSLWCLVKGFYPSDIAVEWESNGQPENNYKTTPPVLDSDGSFFLYSKLTVDKSRWQQGNVFSCSVMHEALHNHYTQKSLSLSPGK
heavy 2: EVQLVESGGGLVKPGGSLRLSCAASGFSFSNSAMSWVRQAPGKGLEWVSTISSGDSYTYYADSVKGRFTISRDNAKNSLYLQMNSLRAEDTAVYYCARQGYGNALDYWGQGTLVTVSSASTKGPSVFPLAPSSKSTSGGTAALGCLVKDYFPEPVTVSWNSGALTSGVHTFPAVLQSSGLYSLSSVVTVPSSSLGTQTYICNVNHKPSNTKVDKKVEPKSCDKTHTAPAPAPAPAPAPAPAPQVQLVESGGGVVQPGRSLRLSCAASGFTFSTYAMNWVRQAPGKGLEWVGRIRSKYNNYATYYADSVKDRFTISRDDSKNTLYLQMNSLRGEDTAVYYCARHGNFGNSYVSWFAYWGQGTLVTVSSGGGGSGGGGSGGGGSQTVVTQEPSLTVSPGGTVTLTCRSSTGAVTTSNYANWVQQKPGQAPRGLIGGTNKRAPGVPARFSGSLLGGKAALTLSGVQPEDEAEYTCALWYSNLWVFGGGTKVEIKGGGGSDKTHTCPPCPAPPVAGPSVFLFPPKPKDTLMISRTPEVTCVVVDVSHEAPEVQFNWYVDGVEVHNAKTKPREEQFNSTFRVVSVLTVVHQDWLNGKEYKCKVSNKGLPAPIEKTISKTKGQPREPQVCTLPPSRDELTKNQVSLSCAVKGFYPSDIAVEWESNGQPENNYKTTPPVLDSDGSFFLVSKLTVDKSRWQQGNVFSCSVMHEALHNHYTQKSLSLSPGK
notes: CSBODY structure: two 1E9.2 Fab arms; second heavy chain (first heavy entry) and first heavy chain with anti-CD3 scFv (Di6-2) between CH1 and Fc2
B3: the “EC50 value for killing effect on NUGC4-hCLDN18.2 cells” value in the assay with Human CLDN18.2 [3] was less than 0.01 nM. Also, in the assay with Human CLDN18.2 [3], the “EC50 value for killing effect on NUGC4 cells” value is less than 0.01 nM. Further, the values for the EC50 with Human CLDN18.2 [4] and with Human CLDN18.2 [5] were less than 100 nM and less than 50 nM, respectively. Further, the binding result in the assay with Human CLDN18.1 is on record as “no binding”. For the same molecule, the Kd with human CD3 antigen is less than 15 nM.

B4: bispecific antibody Y17 (bispecific antibody, human IgG1, kappa)
light: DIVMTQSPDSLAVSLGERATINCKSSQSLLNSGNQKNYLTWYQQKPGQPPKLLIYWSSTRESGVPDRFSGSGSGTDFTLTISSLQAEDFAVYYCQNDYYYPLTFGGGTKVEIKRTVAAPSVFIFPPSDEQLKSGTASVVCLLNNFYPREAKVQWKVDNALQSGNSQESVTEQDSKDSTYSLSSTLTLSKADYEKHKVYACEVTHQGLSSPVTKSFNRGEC
heavy: B3 heavy 1
chain: QVQLVESGGGVVQPGRSLRLSCAASGFTFSTYAMNWVRQAPGKGLEWVGRIRSKYNNYATYYADSVKDRFTISRDDSKNTLYLQMNSLRGEDTAVYYCARHGNFGNSYVSWFAYWGQGTLVTVSSGGGGSGGGGSGGGGSQTVVTQEPSLTVSPGGTVTLTCRSSTGAVTTSNYANWVQQKPGQAPRGLIGGTNKRAPGVPARFSGSLLGGKAALTLSGVQPEDEAEYTCALWYSNLWVFGGGTKVEIKGRGRGSDKTHTCPPCPAPPVAGPSVFLFPPKPKDTLMISRTPEVTCVVVDVSHEAPEVQFNWYVDGVEVHNAKTKPREEQFNSTFRVVSVLTVVHQDWLNGKEYKCKVSNKGLPAPIEKTISKTKGQPREPQVCTLPPSRDELTKNQVSLSCAVKGFYPSDIAVEWESNGQPENNYKTTPPVLDSDGSFFLVSKLTVDKSRWQQGNVFSCSVMHEALHNHYTQKSLSLSPGK
notes: YBODY structure: anti-CLDN18.2 Fab arm (1E9.2) and second monomer anti-CD3 scFv (Di6-2)-Fc
On to B4, for which, in the assay with Human CLDN18.2 [3], the “EC50 value for killing effect on NUGC4-hCLDN18.2 cells” value is less than 0.01 nM and the “EC50 value for killing effect on NUGC4 cells” value is less than 0.01 nM. Moreover, the EC50 in the assay with Human CLDN18.2 [4] was less than 100 nM. In addition, in the assay with Human CLDN18.2 [5], the EC50 is less than 50 nM. Besides, the binding result with Human CLDN18.1 is “no binding”. This molecule also came in with a Kd with human CD3 antigen of less than 15 nM.

One may read the Kd as the concentration at which binding is half-saturated. A word on the EC50: it is the concentration that produces a half-maximal response. A lower EC50 goes with higher potency in that assay.
